# Experimental data reported in paper PMC6447857, “Structural Study of Agmatine Iminohydrolase From Medicago truncatula, the Second Enzyme of the Agmatine Route of Putrescine Biosynthesis in Plants” (Frontiers in Plant Science, 2019).
# B1: agmatine iminohydrolase from Medicago truncatula (enzyme)
# chain: SNAHGFHMPAEWEPHSQCWIGWPERADNWRDGAVHAQLVFTRVAAAISRFEKVTVCASSAQWENARNQLPDHVRVVEISSNDSWFRDIGPTFVVRRETSKSDDAEHRIAGIDWTFNSWGGLEDGCYCDWSLDSLVKKKILDVERIPRFSHSMVLEGGSIHVDGEGTCITTEECLLNKNRNPHLSKSQIEDELKAYLGVRKVIWLPRGLYGDDDTNGHVDNMCCFVRPGAVLLSWTDDKTDPQYERSEEAYSLFSSVTDANGRKFEVIKLHVPGPLYMTEKEAAGVFQDDGAKPRLPGTRLAASYVNFYIANGAIIAPQFGDKKWDDEAIRVLSKTFPHHEVVGIEGSREIVLSGGNIHCITQQQPAI
# notes: Ser-Asn-Ala linker from the vector pMCSG68 that is not cleaved from the expressed protein; agmatine iminohydrolase, Medicago truncatula, UniProt G7JT50, open reading frame MTR_4g112810, encoded protein starting from codon number 11 to the end; theoretical mass of the construct 41.2 kDa; Homodimer by MALS, SAXS and in both crystal forms; In 6NIC the protein holds the small molecule …
# Target: the molecule itself
# Experiment: SEC-MALS; in-line SEC (WTC-015S5 column) with MALS detector, 5.5 mg/ml MtAIH solution loaded; monomer to dimer
protein,measurement,value
B1,stoichiometry N,2
